Biological target: T1, 重组人IL-10蛋白 (human, UniProt P22301 19-178)
T1 construct: The construct used in the Biacore and ELISA assays is only called recombinant human IL-10 protein; also called 人白介素-10; 重组表达的人白介素-10
Assay: SPR, Biacore 3000; antibody immobilised on CM5 chip, recombinant human IL-10 at 20, 12.3, 4.1, 1.37 and 0.46 nM

T1 sequence (P22301 19-178 limits assumed): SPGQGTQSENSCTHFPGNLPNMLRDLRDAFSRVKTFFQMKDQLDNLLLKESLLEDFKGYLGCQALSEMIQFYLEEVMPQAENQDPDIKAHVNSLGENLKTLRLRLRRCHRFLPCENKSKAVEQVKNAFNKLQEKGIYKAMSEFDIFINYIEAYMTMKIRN

- Kd: 9.68 pM
B1: 抗人IL-10兔单克隆抗体B (antibody, V domains shown)
VH: QSLEESGGDLVKPGASLTLTCTASGFSFSGSYGICWVRQAPGKGLEWIACIVTSSGTTYYASWAKGRFTISKTSSTTVTLQMTSLTAADTATYFCARDLLAYYTGNLWGPGTLVTVSS
VL: ALVMTQTPASVEAAVGGTVTINCQASQSISNELSWYQQKPGQRPELLIYGASRLESGVPSRFSGSGSGTEFTLTISDLECDDAATYYCQSAYYSSSVDIYNTFGGGTEVVVKG
notes: Used biotin-labelled as the detection antibody in the sandwich ELISA; also called B抗体; 兔抗人IL-10单克隆抗体B

From patent CN114349858A (YOUMALI WUHAN BIOTECHNOLOGY CO LTD, dated 2022)
